Laboratory results as given in patent US20070203087A1.

Target: aggrecan (core protein carrying chondroitin sulfate chains) made by rat chondrosarcoma LTC cells (rat) (UniProt P07897)

Substance	chondroitin sulfate synthesis activity (35S sulfate label in chondroitinase ABC-digested GAG fractions of transfected LTC cells and culture medium)
human chondroitin sulfate N-acetylgalactosaminyltransferase-1 (enzyme)	2.2 fold
human chondroitin sulfate glucuronyltransferase (enzyme)	1.6 fold
